In PMC8001533, “A Tryptophan ‘Gate’ in the CRISPR-Cas3 Nuclease Controls ssDNA Entry into the Nuclease Site, That When Removed Results in Nuclease Hyperactivity”:

Legend:
Cas3 wild type = molecular target: T1, Cas3 wild type (Escherichia coli K-12 MG1655, UniProt P38036 1-888); assay: EMSA; EMSA: 20 nM fork DNA, 50 mM Tris-HCl pH 7.5, 100 mM NaCl, 0.1 mg/mL BSA, 20 mM DTT, room temperature, 1 h; settings: protein: recombinant; tags: (His)6-MBP N-terminal (pCas3); a His6-only construct (pAH4) also exists; label: 5'-Cy5 on strand 1 (MW12); fork 1:2; as printed strand 1 nt 2-25 pair with strand 2 nt 27-50
T1 sequence: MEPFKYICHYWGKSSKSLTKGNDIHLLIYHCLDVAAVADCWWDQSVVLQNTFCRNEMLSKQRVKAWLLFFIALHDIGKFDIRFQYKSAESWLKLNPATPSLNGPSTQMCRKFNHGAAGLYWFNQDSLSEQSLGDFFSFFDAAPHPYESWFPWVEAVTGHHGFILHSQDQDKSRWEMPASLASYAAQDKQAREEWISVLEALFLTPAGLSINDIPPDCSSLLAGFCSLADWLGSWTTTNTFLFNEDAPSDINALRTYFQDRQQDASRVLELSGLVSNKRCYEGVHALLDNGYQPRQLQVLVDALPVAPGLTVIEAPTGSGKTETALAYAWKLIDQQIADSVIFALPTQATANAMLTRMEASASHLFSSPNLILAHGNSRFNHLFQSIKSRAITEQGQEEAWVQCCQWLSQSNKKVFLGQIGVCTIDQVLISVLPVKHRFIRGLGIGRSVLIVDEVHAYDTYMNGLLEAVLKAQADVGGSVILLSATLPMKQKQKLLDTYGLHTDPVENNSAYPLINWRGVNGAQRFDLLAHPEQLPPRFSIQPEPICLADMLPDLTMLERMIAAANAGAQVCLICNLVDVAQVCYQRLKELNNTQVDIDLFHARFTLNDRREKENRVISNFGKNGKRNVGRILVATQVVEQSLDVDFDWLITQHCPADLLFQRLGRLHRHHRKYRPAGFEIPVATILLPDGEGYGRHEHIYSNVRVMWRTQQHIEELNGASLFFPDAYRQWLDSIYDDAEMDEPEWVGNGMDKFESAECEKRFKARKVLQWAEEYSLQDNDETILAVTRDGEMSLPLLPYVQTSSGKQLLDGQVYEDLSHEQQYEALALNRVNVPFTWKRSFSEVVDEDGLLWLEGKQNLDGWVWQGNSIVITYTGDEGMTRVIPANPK

Cas3W406A = molecular target: T2, Cas3W406A (Escherichia coli K-12 MG1655, UniProt P38036 1-888, W406A); assay: EMSA; not more stable or efficient than wild type; EMSA: 20 nM fork DNA, 50 mM Tris-HCl pH 7.5, 100 mM NaCl, 0.1 mg/mL BSA, 20 mM DTT, room temperature, 1 h; settings: protein: recombinant; tags: (His)6-MBP or His6 (pIIB39 is the His6 pAH4 version); label: 5'-Cy5 on strand 1 (MW12); fork 1:2; as printed strand 1 nt 2-25 pair with strand 2 nt 27-50
T2 sequence: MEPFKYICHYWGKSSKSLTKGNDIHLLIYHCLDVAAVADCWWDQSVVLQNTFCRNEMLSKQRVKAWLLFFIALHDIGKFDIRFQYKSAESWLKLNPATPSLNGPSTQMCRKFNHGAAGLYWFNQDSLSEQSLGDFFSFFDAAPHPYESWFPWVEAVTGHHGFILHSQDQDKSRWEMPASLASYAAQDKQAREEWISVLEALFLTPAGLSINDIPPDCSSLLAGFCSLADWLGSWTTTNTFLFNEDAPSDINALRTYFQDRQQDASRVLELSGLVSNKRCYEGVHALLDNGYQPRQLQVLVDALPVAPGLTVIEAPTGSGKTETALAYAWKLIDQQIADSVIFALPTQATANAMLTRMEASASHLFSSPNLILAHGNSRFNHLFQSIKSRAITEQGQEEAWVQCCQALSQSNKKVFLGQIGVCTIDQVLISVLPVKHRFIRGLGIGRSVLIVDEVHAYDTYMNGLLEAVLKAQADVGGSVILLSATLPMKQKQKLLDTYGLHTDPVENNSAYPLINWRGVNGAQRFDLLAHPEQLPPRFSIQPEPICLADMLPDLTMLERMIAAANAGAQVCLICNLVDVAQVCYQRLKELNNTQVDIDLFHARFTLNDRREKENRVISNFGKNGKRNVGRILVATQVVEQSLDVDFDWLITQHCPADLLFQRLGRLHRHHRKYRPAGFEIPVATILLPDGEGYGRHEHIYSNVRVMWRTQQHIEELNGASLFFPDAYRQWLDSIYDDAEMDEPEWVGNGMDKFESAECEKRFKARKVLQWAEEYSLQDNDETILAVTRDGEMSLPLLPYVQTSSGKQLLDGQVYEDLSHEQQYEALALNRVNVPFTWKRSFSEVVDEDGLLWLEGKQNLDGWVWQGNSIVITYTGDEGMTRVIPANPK

B1: DNA fork MW12/MW14 (mixed)
DNA 1: GTCGGATCCTCTAGACAGCTCCATGATCACTGGCACTGGTAGAATTCGGC
DNA 2: CAACGTCATAGACGATTACATTGCTACATGGAGCTGTCTAGAGGATCCGA
binding result (Cas3 wild type): binds | binding result (Cas3W406A): binds
